{"source": "patent US20240158512A1", "about": "(TRUEBINDING, published 2024)", "binders": {"B1": {"name": "TB006 (antibody, human IgG4 S228P, kappa, V domains shown)", "VH": "QVQLVQSGAEVKKPGASVKVSCKASGYSFTNYYMHWVRQAPGQRLEWMGWIYPGSGNTNYNEKFQGRVTITADTSASTAYMELSSLRSEDTAVYYCSTAPGGFDVWGQGTTVTVSS", "VL": "DIVMTQTPLSLSVTPGQPASISCKSSKSLLHSDGITYLYWYLQKPGQSPQLLIYRMSNLASGVPDRFSGSGSGTDFTLKISRVEAEDVGVYYCAQMLEFPLTFGQGTKLEIKR", "notes": "Tested as formulated drug substance or drug product in 20 mM L-histidine, 5 mM methionine, 100 mM NaCl, 0.02% polysorbate 80, pH 5.8, or diluted in 0.9% saline; also called 4A11.H3L1; IMT006a"}, "B2": {"name": "TB006 (antibody, human IgG4 S228P, kappa, V domains shown)", "VH": "B1 VH", "VL": "B1 VL", "notes": "Full antibody tested as drug substance (DS) in 20 mM L-histidine, 5 mM methionine, 100 mM NaCl, 0.02% polysorbate-80, pH 5.8; also called 4A11.H3L1; IMT006a"}}, "key": {"Galectin-3 [1]": {"target": "T1, Galectin-3 (UniProt P17931 1-250, limits assumed)", "T1 construct": "Target of the anti-Gal3 antibody TB006; also called Gal3; GAL3", "T1 sequence (P17931 whole entry)": "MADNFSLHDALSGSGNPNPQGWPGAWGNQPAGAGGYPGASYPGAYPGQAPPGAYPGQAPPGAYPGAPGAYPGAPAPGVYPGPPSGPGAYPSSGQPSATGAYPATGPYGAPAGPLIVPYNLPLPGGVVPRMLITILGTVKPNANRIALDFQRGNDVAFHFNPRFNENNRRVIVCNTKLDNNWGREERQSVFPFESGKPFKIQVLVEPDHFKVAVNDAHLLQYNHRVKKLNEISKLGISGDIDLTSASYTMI", "test": "ELISA (Biological Activity); long-term stability 5 C, 3 months"}, "Galectin-3 [2]": {"target": "T1, Galectin-3", "test": "ELISA blocking assay; TB006 diluted to 0.31 mg/mL in 0.9% NaCl, 25 C, 2 h; blocked partner not named"}, "Galectin-3 [3]": {"target": "T1, Galectin-3", "test": "ELISA (Biological Activity); accelerated stability 25 C/60% RH, 1 month"}, "Galectin-3 [4]": {"target": "T1, Galectin-3", "test": "ELISA blocking assay; TB006 diluted to 0.31 mg/mL in 0.9% NaCl, 25 C, 1 h; blocked partner not named"}, "Galectin-3 [5]": {"target": "T1, Galectin-3", "test": "BLI; after 40 C for 7 days"}, "Galectin-3 [6]": {"target": "T1, Galectin-3", "test": "BLI; after 3 freeze/thaws, 25% vol. of container"}, "Galectin-3 [7]": {"target": "T1, Galectin-3", "test": "BLI; after 40 C for 28 days"}, "Galectin-3 [8]": {"target": "T1, Galectin-3", "test": "BLI; after -80 C for 9 months"}, "Galectin-3 [9]": {"target": "T1, Galectin-3", "test": "BLI (Binding Activity); long-term stability 5 C, 0 months; 5° C. long-term table, 0 months, Batch No. 095I0720"}, "Galectin-3 [10]": {"target": "T1, Galectin-3", "test": "BLI; after 4 C for 18 months"}, "Galectin-3 [11]": {"target": "T1, Galectin-3", "test": "BLI; after 25 C for 9 months"}, "Galectin-3 [12]": {"target": "T1, Galectin-3", "test": "BLI; after 25 C for 14 days"}, "Galectin-3 [13]": {"target": "T1, Galectin-3", "test": "BLI; after -80 C for 3 months"}, "Galectin-3 [14]": {"target": "T1, Galectin-3", "test": "BLI; after 5 freeze/thaws, 50% vol. of container"}, "Galectin-3 [15]": {"target": "T1, Galectin-3", "test": "BLI; Time 0 (control)"}, "Galectin-3 [16]": {"target": "T1, Galectin-3", "test": "ELISA blocking assay; TB006 diluted to 0.31 mg/mL in 0.9% NaCl, 25 C, 0 h; blocked partner not named; Bag #1, 0 h"}, "Galectin-3 [17]": {"target": "T1, Galectin-3", "test": "BLI; after 40 C for 21 days"}, "Galectin-3 [18]": {"target": "T1, Galectin-3", "test": "BLI; after 3 freeze/thaws, 75% vol. of container"}, "Galectin-3 [19]": {"target": "T1, Galectin-3", "test": "BLI (Binding Activity); long-term stability 5 C, 1 month"}, "Galectin-3 (Gal3) [20]": {"target": "T2, Galectin-3 (Gal3) (UniProt P17931 1-250, limits assumed)", "T2 construct": "Target of TB006", "T2 sequence (P17931 whole entry)": "as above", "test": "BLI; 50 mg/mL DS after 40 C for 3 months"}, "Galectin-3 (Gal3) [21]": {"target": "T2, Galectin-3 (Gal3)", "test": "BLI; 50 mg/mL DS after 25 C for 14 days"}, "Galectin-3 (Gal3) [22]": {"target": "T2, Galectin-3 (Gal3)", "test": "BLI; 50 mg/mL DS after -80 C for 9 months"}, "Galectin-3 (Gal3) [23]": {"target": "T2, Galectin-3 (Gal3)", "test": "BLI; 20 mg/mL DS after 40 C for 7 days"}, "Galectin-3 (Gal3) [24]": {"target": "T2, Galectin-3 (Gal3)", "test": "BLI; 20 mg/mL DS after 4 C for 9 months", "summary_of_the_method": "(§1)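 Galectin-3 binding is reported as the dissociation constant (Kd), measured by biolayer interferometry. Samples were collected at time zero or after agitation, repeated freeze-thaw cycles, or storage at set temperatures, including 40° C and cryogenic storage.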"}, "Galectin-3 (Gal3) [25]": {"target": "T2, Galectin-3 (Gal3)", "test": "BLI; 20 mg/mL DS after 25 C for 6 months", "summary_of_the_method": "as §1"}, "Galectin-3 (Gal3) [26]": {"target": "T2, Galectin-3 (Gal3)", "test": "BLI; 20 mg/mL DS after 25 C for 1 month", "summary_of_the_method": "as §1"}, "Galectin-3 (Gal3) [27]": {"target": "T2, Galectin-3 (Gal3)", "test": "BLI; 20 mg/mL DS after agitation for 3 days", "summary_of_the_method": "as §1"}, "Galectin-3 (Gal3) [28]": {"target": "T2, Galectin-3 (Gal3)", "test": "BLI; 50 mg/mL DS after 25 C for 3 months"}, "Galectin-3 (Gal3) [29]": {"target": "T2, Galectin-3 (Gal3)", "test": "BLI; 20 mg/mL DS after 4 C for 3 months"}, "Galectin-3 (Gal3) [30]": {"target": "T2, Galectin-3 (Gal3)", "test": "BLI; 20 mg/mL DS after 3 freeze/thaws", "summary_of_the_method": "as §1"}, "Galectin-3 (Gal3) [31]": {"target": "T2, Galectin-3 (Gal3)", "test": "BLI; 20 mg/mL DS after -80 C for 18 months", "summary_of_the_method": "as §1"}, "Galectin-3 (Gal3) [32]": {"target": "T2, Galectin-3 (Gal3)", "test": "BLI; 50 mg/mL DS after 4 C for 6 months"}}, "note": "Where “and” joins values, the source holds several entries; their conditions need not be identical. Equal entries are not always repeated."}
{"binder": "B1", "values": [{"measurement": "IC50", "setting": "Galectin-3 [1]", "result": 1.5, "unit": "µg/mL"}, {"measurement": "IC50", "setting": "Galectin-3 [2]", "result": "1.67 µg/mL and 1.71 µg/mL"}, {"measurement": "IC50", "setting": "Galectin-3 [3]", "result": 1.8, "unit": "µg/mL"}, {"measurement": "IC50", "setting": "Galectin-3 [4]", "result": "1.63 µg/mL and 1.43 µg/mL"}, {"measurement": "Kd", "setting": "Galectin-3 [5]", "result": 2.4, "unit": "nM"}, {"measurement": "Kd", "setting": "Galectin-3 [6]", "result": 2.8, "unit": "nM"}, {"measurement": "Kd", "setting": "Galectin-3 [7]", "result": 3.1, "unit": "nM"}, {"measurement": "Kd", "setting": "Galectin-3 [8]", "result": 2, "unit": "nM"}, {"measurement": "Kd", "setting": "Galectin-3 [9]", "result": 3, "unit": "nM"}, {"measurement": "Kd", "setting": "Galectin-3 [10]", "result": 2.1, "unit": "nM"}, {"measurement": "Kd", "setting": "Galectin-3 [11]", "result": 2.8, "unit": "nM"}, {"measurement": "Kd", "setting": "Galectin-3 [12]", "result": 2.6, "unit": "nM"}, {"measurement": "Kd", "setting": "Galectin-3 [13]", "result": 3.3, "unit": "nM"}, {"measurement": "Kd", "setting": "Galectin-3 [14]", "result": 3.1, "unit": "nM"}, {"measurement": "Kd", "setting": "Galectin-3 [15]", "result": 2.8, "unit": "nM"}, {"measurement": "IC50", "setting": "Galectin-3 [16]", "result": 1.01, "unit": "µg/mL"}, {"measurement": "Kd", "setting": "Galectin-3 [17]", "result": 2.8, "unit": "nM"}, {"measurement": "Kd", "setting": "Galectin-3 [18]", "result": 2.6, "unit": "nM"}, {"measurement": "Kd", "setting": "Galectin-3 [19]", "result": 2.5, "unit": "nM"}]}
{"binder": "B2", "values": [{"measurement": "Kd", "setting": "Galectin-3 (Gal3) [20]", "result": 3.1, "unit": "nM"}, {"measurement": "Kd", "setting": "Galectin-3 (Gal3) [21]", "result": 3.1, "unit": "nM"}, {"measurement": "Kd", "setting": "Galectin-3 (Gal3) [22]", "result": 2.8, "unit": "nM"}, {"measurement": "Kd", "setting": "Galectin-3 (Gal3) [23]", "result": 2.9, "unit": "nM"}, {"measurement": "Kd", "setting": "Galectin-3 (Gal3) [24]", "result": 1.9, "unit": "nM"}, {"measurement": "Kd", "setting": "Galectin-3 (Gal3) [25]", "result": 3.4, "unit": "nM"}, {"measurement": "Kd", "setting": "Galectin-3 (Gal3) [26]", "result": 3.9, "unit": "nM"}, {"measurement": "Kd", "setting": "Galectin-3 (Gal3) [27]", "result": 3.4, "unit": "nM"}, {"measurement": "Kd", "setting": "Galectin-3 (Gal3) [28]", "result": 2.5, "unit": "nM"}, {"measurement": "Kd", "setting": "Galectin-3 (Gal3) [29]", "result": 3.4, "unit": "nM"}, {"measurement": "Kd", "setting": "Galectin-3 (Gal3) [30]", "result": 3.3, "unit": "nM"}, {"measurement": "Kd", "setting": "Galectin-3 (Gal3) [31]", "result": 4.2, "unit": "nM"}, {"measurement": "Kd", "setting": "Galectin-3 (Gal3) [32]", "result": 2.1, "unit": "nM"}]}
